Data published in the Immune Epitope Database (IEDB).

How the values were obtained:
Assay in all cases: IEDB peptide-MHC binding, purified MHC/competitive/radioactivity; filed as Kd, often an IC50 or EC50 that approximates it; ≥ and ≤ were set here for values at or beyond the usual limits of such assays
HLA-A*02:02 = molecular target: HLA-A*02:02
HLA-A*02:03 = molecular target: HLA-A*02:03
HLA-A*02:06 = molecular target: HLA-A*02:06
[1] = source organism: Vaccinia virus WR
[2] = source organism: Vaccinia virus Copenhagen
[3] = source organism: SARS coronavirus Tor2

Sequence | Kd (HLA-A*02:02; [1]) [nM] | Kd (HLA-A*02:03; [1]) [nM] | Kd (HLA-A*02:06; [1]) [nM] | further results
LLLENKSLTI | 982 | 985 | 1320 | –
AMLKSKNINI | 1650 | 223 | 200 | –
ILSCIFAFI | – | – | – | Kd (HLA-A*02:02; [2]): 0.79 nM; Kd (HLA-A*02:03; [2]): 3.08 nM; Kd (HLA-A*02:06; [2]): 8.84 nM
DLDKVYEIL | 19600 | ≥ 26300 | ≥ 53700 | –
LLLEWLAEVV | – | – | – | Kd (HLA-A*02:02; [3]): 0.31 nM; Kd (HLA-A*02:03; [3]): 0.813 nM; Kd (HLA-A*02:06; [3]): 0.525 nM
VQTLISLNSM | 1560 | 5820 | 853 | –
SMTSDSKSI | 8350 | 2300 | ≥ 55800 | –
FAFIDFSKST | 11800 | 2410 | 1410 | –
YTKHSMLTNA | 3900 | 141 | 7340 | –
ETMYLTMKA | 7850 | 942 | 12700 | –
TLVKSGLTEV | 64.1 | 2.93 | 45.1 | –
LMWFIISIV | – | – | – | Kd (HLA-A*02:02; [3]): 60.1 nM; Kd (HLA-A*02:03; [3]): 7.18 nM; Kd (HLA-A*02:06; [3]): 26.8 nM
IINSVSIIL | 705 | 2900 | ≥ 25900 | –
SVGTGILFM | 1090 | 2250 | ≥ 20700 | –
PLIISTDQDT | ≥ 45000 | ≥ 35600 | ≥ 47400 | –
FVDTMSIYIA | 154 | 2390 | 1100 | –
YIAGLKIEEI | 8.92 | 5.3 | 134 | –
NVSRVVECL | 133 | 938 | 1030 | –
ELTNKKYRCM | ≥ 70000 | ≥ 70400 | ≥ 69800 | –
SMYVIPDELI | 30.7 | 114 | 492 | –
IVNTTYDFLA | 1250 | 8270 | 956 | –
VTLFIDRGSI | 3830 | 2250 | 3010 | –
ELKDLLNVT | 1540 | 209 | ≥ 38400 | –
AVIIMAINV | 9070 | 2760 | 65.2 | –
DVCKKNLDL | ≥ 25400 | 8020 | 16300 | –
RVTKRDESSI | 12300 | 10700 | ≥ 22200 | –
